In article PMC4851370, “The N-Terminus of the Floral Arabidopsis TGA Transcription Factor PERIANTHIA Mediates Redox-Sensitive DNA-Binding”:

T1: PANC27SC68SC87SC114SC154SC340S (PAN6xCysmut) (Arabidopsis thaliana, UniProt Q9SX27 1-452, C27S;C68S;C87S;C114S;C154S;C340S)
T1 sequence: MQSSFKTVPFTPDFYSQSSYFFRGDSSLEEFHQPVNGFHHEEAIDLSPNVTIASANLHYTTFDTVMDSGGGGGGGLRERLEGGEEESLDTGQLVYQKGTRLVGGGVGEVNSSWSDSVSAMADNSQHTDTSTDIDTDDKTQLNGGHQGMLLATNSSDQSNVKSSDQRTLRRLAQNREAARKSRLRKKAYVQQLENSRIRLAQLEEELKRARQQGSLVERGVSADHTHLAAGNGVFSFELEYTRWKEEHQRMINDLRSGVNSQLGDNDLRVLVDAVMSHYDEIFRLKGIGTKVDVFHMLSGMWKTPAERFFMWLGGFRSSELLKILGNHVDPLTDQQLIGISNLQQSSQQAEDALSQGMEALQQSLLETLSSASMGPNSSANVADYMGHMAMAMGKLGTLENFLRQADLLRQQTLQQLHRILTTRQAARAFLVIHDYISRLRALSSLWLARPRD

T2: PANC27SC68SC87SC114SC154S (Arabidopsis thaliana, UniProt Q9SX27 1-452, C27S;C68S;C87S;C114S;C154S)
T2 sequence: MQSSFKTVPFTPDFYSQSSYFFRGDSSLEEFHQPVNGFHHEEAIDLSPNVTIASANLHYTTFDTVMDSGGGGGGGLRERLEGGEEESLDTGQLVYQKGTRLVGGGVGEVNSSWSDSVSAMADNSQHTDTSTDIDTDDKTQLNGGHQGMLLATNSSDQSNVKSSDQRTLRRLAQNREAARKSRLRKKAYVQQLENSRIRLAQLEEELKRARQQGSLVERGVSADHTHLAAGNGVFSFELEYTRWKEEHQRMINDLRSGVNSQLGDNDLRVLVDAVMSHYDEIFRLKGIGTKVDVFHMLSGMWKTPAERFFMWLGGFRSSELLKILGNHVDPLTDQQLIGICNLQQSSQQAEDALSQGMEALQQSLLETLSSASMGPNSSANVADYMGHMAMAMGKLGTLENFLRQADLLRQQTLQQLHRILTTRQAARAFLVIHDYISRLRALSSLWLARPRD

T3: PANΔN (Arabidopsis thaliana, UniProt Q9SX27 167-452, del1-166)
T3 sequence: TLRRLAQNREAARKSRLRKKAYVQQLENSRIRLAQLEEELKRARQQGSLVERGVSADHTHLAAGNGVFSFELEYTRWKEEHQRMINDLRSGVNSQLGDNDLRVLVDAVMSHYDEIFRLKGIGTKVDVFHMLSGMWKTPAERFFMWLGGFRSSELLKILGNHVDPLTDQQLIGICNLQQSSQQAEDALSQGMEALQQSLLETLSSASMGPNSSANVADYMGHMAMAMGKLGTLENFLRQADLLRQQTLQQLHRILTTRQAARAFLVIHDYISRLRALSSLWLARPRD

T4: TGA10 (Arabidopsis thaliana, UniProt E3VNM4 1-460)
T4 sequence: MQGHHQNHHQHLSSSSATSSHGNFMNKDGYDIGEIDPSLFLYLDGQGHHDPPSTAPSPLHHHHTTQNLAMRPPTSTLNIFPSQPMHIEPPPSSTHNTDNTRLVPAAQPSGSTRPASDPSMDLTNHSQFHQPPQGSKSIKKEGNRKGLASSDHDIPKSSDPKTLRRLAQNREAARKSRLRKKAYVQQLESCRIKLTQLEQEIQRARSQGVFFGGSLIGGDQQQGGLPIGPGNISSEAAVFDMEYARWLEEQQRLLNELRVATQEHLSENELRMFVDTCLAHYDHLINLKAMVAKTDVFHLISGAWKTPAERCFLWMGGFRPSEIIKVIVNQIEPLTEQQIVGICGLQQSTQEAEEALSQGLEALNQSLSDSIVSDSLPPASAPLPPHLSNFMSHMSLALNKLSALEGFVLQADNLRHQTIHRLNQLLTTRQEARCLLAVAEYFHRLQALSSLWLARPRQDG

T5: TGA1 (Arabidopsis thaliana, UniProt Q39237 1-368)
T5 sequence: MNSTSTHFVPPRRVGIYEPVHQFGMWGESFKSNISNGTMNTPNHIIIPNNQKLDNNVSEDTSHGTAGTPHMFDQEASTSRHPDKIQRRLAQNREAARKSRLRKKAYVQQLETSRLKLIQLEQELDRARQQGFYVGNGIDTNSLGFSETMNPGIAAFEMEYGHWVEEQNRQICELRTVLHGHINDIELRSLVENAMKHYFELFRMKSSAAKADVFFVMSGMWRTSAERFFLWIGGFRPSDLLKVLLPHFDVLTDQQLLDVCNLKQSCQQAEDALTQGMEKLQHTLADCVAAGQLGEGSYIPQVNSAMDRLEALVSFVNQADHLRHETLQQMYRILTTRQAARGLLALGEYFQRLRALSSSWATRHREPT

T6: PANC68SC87S (Arabidopsis thaliana, UniProt Q9SX27 1-452, C68S;C87S)
T6 sequence: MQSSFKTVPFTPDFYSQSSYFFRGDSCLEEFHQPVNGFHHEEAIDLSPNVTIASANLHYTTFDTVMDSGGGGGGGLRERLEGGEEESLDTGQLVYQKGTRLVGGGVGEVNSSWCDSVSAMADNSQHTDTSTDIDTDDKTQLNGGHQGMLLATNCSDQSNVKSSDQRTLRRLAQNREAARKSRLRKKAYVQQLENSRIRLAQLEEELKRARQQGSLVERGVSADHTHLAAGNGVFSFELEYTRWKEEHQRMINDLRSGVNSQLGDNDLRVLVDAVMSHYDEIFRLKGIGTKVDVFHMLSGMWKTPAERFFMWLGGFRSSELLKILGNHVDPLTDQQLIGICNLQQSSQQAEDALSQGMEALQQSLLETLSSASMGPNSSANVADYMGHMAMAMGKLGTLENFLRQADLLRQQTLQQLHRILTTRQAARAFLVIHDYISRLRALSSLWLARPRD

T7: TGA2 (Arabidopsis thaliana, UniProt P43273 1-330)
T7 sequence: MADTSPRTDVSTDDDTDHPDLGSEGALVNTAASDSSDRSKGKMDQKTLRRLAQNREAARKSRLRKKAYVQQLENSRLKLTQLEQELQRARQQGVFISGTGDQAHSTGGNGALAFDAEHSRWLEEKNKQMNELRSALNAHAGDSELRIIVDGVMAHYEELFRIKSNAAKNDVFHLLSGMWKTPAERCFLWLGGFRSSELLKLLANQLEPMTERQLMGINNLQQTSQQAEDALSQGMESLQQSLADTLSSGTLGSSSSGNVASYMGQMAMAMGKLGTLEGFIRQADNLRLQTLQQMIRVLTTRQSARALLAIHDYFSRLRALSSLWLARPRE

T8: TGA3 (Arabidopsis thaliana, UniProt Q39234 1-384)
T8 sequence: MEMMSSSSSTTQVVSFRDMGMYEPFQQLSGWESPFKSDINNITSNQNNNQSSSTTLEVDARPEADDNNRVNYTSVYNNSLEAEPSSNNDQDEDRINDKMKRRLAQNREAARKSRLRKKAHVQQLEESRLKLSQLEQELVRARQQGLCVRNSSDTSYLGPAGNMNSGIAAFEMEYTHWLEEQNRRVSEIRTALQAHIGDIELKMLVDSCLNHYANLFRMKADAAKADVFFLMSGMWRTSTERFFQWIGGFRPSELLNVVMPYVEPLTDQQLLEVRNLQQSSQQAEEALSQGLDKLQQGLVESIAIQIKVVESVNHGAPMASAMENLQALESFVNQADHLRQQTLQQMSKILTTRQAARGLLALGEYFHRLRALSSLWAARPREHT

T9: … (PAN) (Arabidopsis thaliana, UniProt Q9SX27 1-452)
T9 sequence: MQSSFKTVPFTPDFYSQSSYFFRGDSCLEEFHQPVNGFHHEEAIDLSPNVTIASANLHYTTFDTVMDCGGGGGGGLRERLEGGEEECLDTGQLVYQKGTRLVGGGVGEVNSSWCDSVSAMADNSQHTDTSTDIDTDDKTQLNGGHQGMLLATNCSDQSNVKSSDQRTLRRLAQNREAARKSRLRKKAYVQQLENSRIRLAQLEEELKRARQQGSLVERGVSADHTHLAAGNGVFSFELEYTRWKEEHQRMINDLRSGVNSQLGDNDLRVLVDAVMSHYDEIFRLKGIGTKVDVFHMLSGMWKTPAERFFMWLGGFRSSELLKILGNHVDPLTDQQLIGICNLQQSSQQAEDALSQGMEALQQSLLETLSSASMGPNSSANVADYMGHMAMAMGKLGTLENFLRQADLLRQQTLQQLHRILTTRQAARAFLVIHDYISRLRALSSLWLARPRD


Tests used:
Conditions in all cases: protein: ivt; tags: none; chain copies: 2; label: 5' 32P; blunt
[1] = biological target: T1, PANC27SC68SC87SC114SC154SC340S …; assay: EMSA; 2 mM diamide; no inhibition; EMSA as in cited ref 20 (buffer, salt, pH, temperature not given); with or without 0.9 or 20 mM DTT or 2 mM diamide, 30 min in the dark before probe addition
[2] = biological target: T2, PANC27SC68SC87SC114SC154S; assay: as above
PANΔN = biological target: T3, PANΔN; assay: EMSA; 2 mM diamide; no reduction; EMSA as in cited ref 20 (buffer, salt, pH, temperature not given); with or without 0.9 or 20 mM DTT or 2 mM diamide, 30 min in the dark before probe addition
TGA10 = biological target: T4, TGA10; assay: EMSA; 0.9 mM DTT; EMSA as in cited ref 20 (buffer, salt, pH, temperature not given); with or without 0.9 or 20 mM DTT or 2 mM diamide, 30 min in the dark before probe addition
TGA1 = biological target: T5, TGA1; assay: as above
PANC68SC87S = biological target: T6, PANC68SC87S; assay: as above
TGA2 = biological target: T7, TGA2; assay: as above
TGA3 = biological target: T8, TGA3; assay: as above
… (PAN) = biological target: T9, … (PAN); assay: EMSA; EMSA as in cited ref 20 (buffer, salt, pH, temperature not given); with or without 0.9 or 20 mM DTT or 2 mM diamide, 30 min in the dark before probe addition

Binder | binding result [1] | binding result [2] | binding result (PANΔN) | binding result (TGA10) | binding result (TGA1) | binding result (PANC68SC87S) | binding result (TGA2) | binding result (TGA3) | binding result (… (PAN))
AAGAAT (dsDNA) DNA 1: AAGAATCTTTGATCACGTCATCACTCAGATATT DNA 2: AATATCTGAGTGATGACGTGATCAAAGATTCTT | binds | binds | binds | binds | binds | binds | binds | binds | binds
ΔbZIP (dsDNA) DNA 1: AAGAATCTTTGATCAAATCATCACTCAGATATT DNA 2: AATATCTGAGTGATGATTTGATCAAAGATTCTT |  |  |  |  |  |  |  |  | no binding
